Laboratory results: the supplement of paper PMC12042874
± gives the uncertainty stated by the source.

Assay: amyloid nucleation score (Sup35N fusion, yeast selection) (log enrichment); library NNK1; higher = more nucleation; inactive = no reads after selection
Procedure, shortened: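 Psi-negative yeast expressed Sup35N fused to peptides of 20 random codons. They were induced 24 hours with 100 μM copper sulfate, grown 7 days at 30°C without adenine and uracil, and their plasmid inserts from input and output were Illumina-sequenced. The nucleation score is the DiMSum log enrichment of output over input reads, centred on the mode score of non-aggregating sequences. Sequences with under 100 input reads were excluded.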

Row | Substance | amyloid nucleation score
1 | ERIRTHIRPIGCRRNLMVGW | 1.08 ± 0.63
2 | CHFSYSI | 0.558 ± 1.1
3 | MVDMILLGRNFINKRMLCLG | 0.019 ± 0.64
4 | FWTRCVFLLRGNSMWESCRG | -0.385 ± 0.9
5 | RCDLARVLLMGRWLGPNAVW | -0.359 ± 0.67
6 | AHSANSKIVSFRMLDDYRPD | 1.1 ± 0.39
7 | FSMLIDEELDFSAETSLRHG | 0.637 ± 0.59
8 | SVGFDDGPRSGTLNGFVSRR | -0.262 ± 0.6
9 | LRGRSPNYEALKMLYFFLLV | 0.314 ± 1.4
10 | LYNFVGSNRIRFASCTQLLC | 1.87 ± 0.38
11 | NVLGLFQLRDSTQNGAMYIL | 0.076 ± 0.62
12 | VIIRIIKFTCNSSLIIITKW | 0.694 ± 0.49
13 | GPFASVFCAYGRVGVM | 0.354 ± 0.68
14 | LQSFVLLGDRIYRRFCVLMN | 0.048 ± 1.2
15 | THSRFSYGVVNR | 0.683 ± 1
16 | AVMPHCSCTRNQRFRLVSMH | 0.707 ± 0.85
17 | DWWLPGMLMNRGGLQIVVLV | -0.84 ± 1.1
18 | WSYAIKAISSMGAVTDASRM | -0.136 ± 0.31
19 | LVRLVVLLKEPGEDRFIIEH | -0.427 ± 0.79
20 | PRMFIWMCDRDDVSMYQEFL | 0.48 ± 0.55
21 | MMPFYHSNSR | -1.38 ± 1.1
22 | MYMGAPSIVVIVMLQNMKFV | 2.34 ± 0.32
23 | FRGSRELNMSSQGVGACLIR | -0.399 ± 0.88
24 | RKNFMGSEFVLDNILCLFLL | 7.583 ± 0.055
25 | QFVHGRNETIRSFNCPGLAE | -0.007 ± 1.2

Row | Substance | amyloid nucleation score
26 | LNYIQNC | inactive
27 | FTRTLMLMIRACCWHRFQLT | 0.008 ± 0.91
28 | NRGSRTVLWDGNWAGTNTMP | -0.154 ± 0.47
29 | MVGSAVVFVLENLGVTGSWG | 0.072 ± 0.84
30 | PSILTVCLRV | 0.188 ± 0.41
31 | LMLVHRVF | -0.034 ± 0.51
32 | LHRSRFHDNTTSNGLLKGTV | -0.574 ± 0.6
33 | MDPIPREAQVKVLSSHTTIG | 0.606 ± 0.53
34 | NLWGSFTCYLFVIGNHWFGI | 6.96 ± 0.084
35 | IVSMRL | 0.216 ± 1.4
36 | IDEYTDMN | 0.146 ± 0.42
37 | YFCPLKCVMPENDCPFPMVM | 0.416 ± 0.25
38 | HGNYTHQMTPAELFLRHMRF | -0.991 ± 2.4
39 | TFWYLLNCVSRLFNF | -0.013 ± 0.57
40 | GGRLRW | 0.452 ± 0.48
41 | LRFMCRYFLRQRNYEPWFYG | 0.1 ± 0.55
42 | ISRSASVGRGLGKYESRAVR | 0.353 ± 1.2
43 | ERVSRSVGPACAREETKGST | 0.354 ± 0.77
44 | RIKFDTKMRTVQCSCGSLHS | 2.78 ± 0.18
45 | FYVGDVITHHWEAELNYSDV | -0.573 ± 1.7
46 | EWDSYMGPFAERMEYNVVFH | 0.398 ± 0.62
47 | LNFDNFLLMWTMLVNRIISD | 0.574 ± 0.97
48 | RAKICFVRQGRGFIMHRLLA | 1.39 ± 0.23
49 | TFQCCLDVCASVC | 0.273 ± 0.46
50 | NLQSCLVYKVSVGNLPLIYL | -0.45 ± 1.2

Row | Substance | amyloid nucleation score
51 | SCGNLIVRPLVGVCHAWNEE | 0.489 ± 0.46
52 | WASFGPLGAQVPDRRFIYMP | 0.151 ± 0.81
53 | TFPGDGRFPKVSKVYDPVLE | inactive
54 | FHGDLA | -0.57 ± 0.26
55 | HVDDIWWTTFMYFPRCHLHV | 0.858 ± 0.57
56 | IGLMRLC | -0.608 ± 1.2
57 | HFYSRYRTPQTRS | -0.549 ± 0.64
58 | RTVVQKKPVRCNMICNYWVF | 4.82 ± 0.064
59 | LLIRLLGQ | inactive
60 | SSFRLQALPVEFHGVNYHLA | 0.182 ± 0.92
61 | WRARLWDLNPWHVAREMIAG | 0.096 ± 0.93
62 | LYLSWSFSALSV | -0.593 ± 1.2
63 | TNNSWCFFLRLGYT | 5.05 ± 0.076
64 | FAQECLFMSVDLCLR | 0.125 ± 1.1
65 | RTILISAGAKCVNLMMLDSV | 1.6 ± 0.29
66 | PIKAPLGASCGFAVRVTRTM | 0.391 ± 0.46
67 | VEPSYMFGYVVDWEHMVLKS | -2.11 ± 2.4
68 | LVPNLLVHGVYY | -2.39 ± 2.4
69 | CQLSNTSIACSLYNLHCRSW | 4.42 ± 0.13
70 | SHLFQM | -0.034 ± 0.58
71 | VLKTWVIDNKSVGEMCNLNG | 0.556 ± 0.85
72 | PGMNSRCCA | 0.48 ± 0.72
73 | EKHEVVCIVKTVR | 0.424 ± 0.85
74 | QFSHCWMSRRSGVNSAGRSG | -0.238 ± 0.39
75 | ADCPLCGTYNLSYCMVRLDI | 0.349 ± 0.28

Row | Substance | amyloid nucleation score
76 | SSDSVSLYYLISYTPFGRFN | inactive
77 | SVISRIKCRASRDGLHHGNH | 0.862 ± 0.28
78 | AMFAMLNDRGRLGACYLVGK | 1.55 ± 0.78
79 | NFCFTVFLEVNAVKMRIYF | -0.798 ± 1.1
80 | VGRMPNGYVVGINIGLSRRL | -0.696 ± 1.7
81 | SCEFLCVRHVLCHHLSLNVS | 0.296 ± 1.4
82 | AVLWTHQYFYYYIGLAF | -0.267 ± 0.68
83 | GPRAN | -1.55 ± 2.7
84 | TGYRFLSIIIAAADSDCELS | -0.706 ± 1.2
85 | GSNPVVSLW | 0.076 ± 0.44
86 | INYFQDD | -0.727 ± 1.4
87 | MQNCISLL | -0.483 ± 0.4
88 | ISDEIGIAIENKDSLRKGFR | 0.002 ± 0.84
89 | LMKCCNVMGCGDDA | 2.45 ± 0.15
90 | LNYSWDWLVVCIVANVRTYD | 2.22 ± 0.12
91 | CCLIHS | 1.38 ± 0.5
92 | ESCKSVNCLMRQGDLRVTAW | -0.122 ± 0.3
93 | PCTPYLSTYVPLNEK | -0.017 ± 0.31
94 | RVCKYGCAKT | 0.566 ± 0.34
95 | DMIDSGGNALHSSQAHNYRR | 1.08 ± 0.37
96 | DVLLSFEYLD | inactive
97 | GDIFSVQQPSNHQLETLKYS | inactive
98 | CSVKCKTRCVYRFMESKWF | -0.021 ± 0.32
99 | NNSKFMWQLSNWSWYTWHYI | -0.392 ± 0.83
100 | SFCNFQGVRFFL | 1.73 ± 0.2

Row | Substance | amyloid nucleation score
101 | RVNIV | -0.624 ± 0.48
102 | FYHFALFGVCARVPSDLACV | inactive
103 | AYGLNARIHTATGECLLGYA | -0.143 ± 0.24
104 | FSVAGSE | inactive
105 | KCIYTEKEMGLSAFTLRLYI | 6.286 ± 0.058
106 | NDRPMMEVGMDPTPAGVLRE | 0.276 ± 0.49
107 | IIFWGLCICHPVLPTRGGWE | 7.26 ± 0.084
108 | NREIPQWIGFVY | 1.12 ± 0.65
109 | CGIVFCSSFMDIFGPFDQTH | 8.373 ± 0.056
110 | YYSYMNCIMITISLLMLVLQ | -0.052 ± 0.21
111 | NLNTASQNIASLGLGALVLW | 0.073 ± 0.44
112 | SDAMSTHQRVNRF | 0.369 ± 0.55
113 | QFKRKIICQDKSVAFKCNYR | -0.493 ± 0.22
114 | LSFEIFMNVTRPSICHKVSL | -2.04 ± 2.4
115 | GGFAILNAREEHWGLKGSSM | -0.491 ± 0.55
116 | YEDLSNDYNSNRWIVYALSK | -0.189 ± 0.24
117 | QLRHLHSNVLLRDIWLGFKF | -1.01 ± 1.7
118 | TMLLDAYHEFKWANTNLFWL | -0.263 ± 0.93
119 | YKLRFNILASMDNRMKLKWL | -0.899 ± 0.81
120 | SAPENSWGAWLDYGELEVGW | 0.016 ± 0.35
121 | TFYLFSRGSSLEIWG | 5.72 ± 0.059
122 | AKGYSYCKLI | -0.804 ± 0.3
123 | RVSPFISNTFVVNSKETHGV | 4.56 ± 0.056
124 | RHVAYRSLRFSGCTP | 0.416 ± 0.76
125 | AFPTIAYMIWVFVDVQLCSE | 1.25 ± 0.58

Row | Substance | amyloid nucleation score
126 | AWAKFCCSD | -0.012 ± 1.1
127 | WEYEAGNFDSVMMVLLLSCY | 1.25 ± 0.61
128 | CRSSVLRSVCINNLSKCSLV | inactive
129 | GLIYTTSLMRVLNSVVGL | inactive
130 | LKVERMTRKPHGVELLSFRR | -0.163 ± 0.97
131 | SILEQILC | -0.324 ± 0.22
132 | YDFLPRVNNPLSRNLRHRAL | -0.071 ± 0.56
133 | LHLVTYFVTYVLYSFSISAS | -0.268 ± 0.7
134 | HNSHRWYMGGTNVGVSCI | 0.456 ± 0.93
135 | YISFHTTSYRFRLYRLL | 0.894 ± 0.17
136 | TCRKFKYPL | 0.372 ± 0.29
137 | PVVDKLSDVHVM | -0.262 ± 0.31
138 | DTKCMMENRAIVMFCIQGKH | 0.827 ± 0.3
139 | LFSSYSLEE | 1.1 ± 0.77
140 | VCEISLN | 0.016 ± 1.2
141 | SECLLYSWRVILSRLSPESE | 0.257 ± 0.62
142 | NDDTLRSTKVIEHLFP | 0.698 ± 1.2
143 | GTWNF | -0.023 ± 0.55
144 | EVIAGCGLRCRSSNHIVREM | 0.104 ± 0.36
145 | IKFERAIRSSVGKQRC | 0.784 ± 0.71
146 | RDSITITVNCT | 2.44 ± 0.078
147 | GNVGYLGVSRYLHLC | -0.073 ± 0.41
148 | SSSRV | 0.111 ± 0.42
149 | KMECVVRVSGCRDKVDWTAG | 2.53 ± 0.2
150 | FDIFVDLFFMGALSMRPAAQ | -0.241 ± 1.1

Row | Substance | amyloid nucleation score
151 | PWYTSLEIKRSEETCKAMPF | 0.302 ± 0.41
152 | RYAISYNLRVVGLISMYRNT | 0.655 ± 0.29
153 | KSTPEYRSKDSMCELHKDMC | inactive
154 | YGNYGCLGRWNSLHTCSQIC | -0.913 ± 0.67
155 | LFMLSSVGASMYFMG | 1.69 ± 0.19
156 | SEVCPSSIKR | -0.067 ± 0.49
157 | KCDARVVIFYLVRAGGVNGI | 1.41 ± 0.35
158 | RSFAYSLSQGYFANMNAKVR | inactive
159 | LAVRESIVQDKTWQDYE | -0.102 ± 0.18
160 | RNMLELSFWCYEMKNSSSWS | 1.15 ± 0.24
161 | NYICMGP | 1.38 ± 0.41
162 | GGVLLRCRTSDNTGNQRVW | inactive
163 | YMVLVDLRTGRIHGSAGEKR | -0.174 ± 0.5
164 | HLECFRLRLPFTNCDVYVRS | 0.845 ± 0.54
165 | NGFDTKYSLEGLGYSWPMLV | 0.407 ± 0.41
166 | QSMSCRAFVVTSRLVHWGTQ | -0.438 ± 0.6
167 | YLYAACVVWLMLLPNME | -0.671 ± 1.2
168 | SVWCGSWVYNTLRLNMGTNL | 3.01 ± 0.15
169 | NNHKLAFTVVTPIEDHFRMR | 0.674 ± 0.46
170 | SQNVPDCVLKTLRFDVPCCR | 1.14 ± 0.4
171 | EWVALRCLDMEGAVAPLALV | 1.02 ± 0.28
